Results: patent US7300651

Biological target: anti-idiotype antibody 3H1
Assay: Ab1-Ab2 binding inhibition assays; competitor 8019

anti-idiotype antibody 3H1, sequence (VL, as listed by the source, chain 1 of 2): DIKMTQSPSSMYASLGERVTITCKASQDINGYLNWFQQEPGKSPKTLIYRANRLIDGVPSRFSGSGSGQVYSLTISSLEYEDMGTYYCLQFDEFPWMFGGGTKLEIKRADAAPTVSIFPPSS
anti-idiotype antibody 3H1, sequence (VH, as listed by the source, chain 2 of 2): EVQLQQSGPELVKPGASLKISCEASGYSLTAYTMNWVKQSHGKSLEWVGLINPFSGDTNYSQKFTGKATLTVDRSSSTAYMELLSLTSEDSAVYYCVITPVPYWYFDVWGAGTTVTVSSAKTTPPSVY

inhibition: 10 to 15%
Substance: control normal serum pool (antibody)
